Reference: patent US10047402B2, “RASAL1 is a major tumor suppressor gene in thyroid cancer” (THE JOHNS HOPKINS UNIVERSITY, priority 2013, dated 2018)
Entries after “also recorded” stand apart in the source; their conditions may differ.

What was measured:
[1] = test system: thyroid cancer cell lines; experiment: Demethylation (MSP) and re-expression (RT-PCR) of RASAL1 after 5-Aza-dC treatment; format: cell-based, human; details: for demethylation of RASAL1 (MSP analysis): thyroid cancer cell lines, 5 μM 5-Aza-dC for 24 hours
Protocol: FIG. 2. Hypermethylation of RASAL1 and its re-expression induced by demethylation in thyroid cancer cells. […] After cells were treated with 5 μM 5-Aza-dC for 24 hours, RNA and genomic DNA were extracted and used for reverse-transcription polymerase chain reaction (RT-PCR) and MSP analysis, respectively. C) RT-PCR analysis of RASAL1 expression in thyroid cancer cell lines treated with or without demethylating agent 5-Aza-dC. D) MSP analysis of RASAL1 in matched normal and cancerous thyroid tissues. Six matched sample pairs are presented that had different methylation patterns between normal and matched tumor tissues. E) RASAL1 methylation levels represented by the indicated allelic methylation percentages (x-axis) and their frequencies (y-axis) in different types of thyroid cancers. ATC=anaplastic thyroid cancer; FTC=follicular thyroid cancer; PTC=papillary thyroid cancer.
DNA bisulfate treatment was performed as previously described (29). See Table 3 for MSP primer sequences. The relative level of methylation was normalized using the ratio obtained from the values of the gene of interest over the values of the internal reference gene (β-actin). The relative methylation level was calculated by the formula [M/(M+U)]×100%, in which M and U represent the density of the methylation and unmethylation band, respectively. Results represent the percentage of allelic methylation of the tumor.
RNA extraction and semi-quantitative RT-PCR were performed as previously described (Liu et al., 13(4) CLIN. CANCER RES. 1341-49 (2007)). Normal human thyroid RNA samples (Stratagene, La Jolla, Calif.) were used as the control. The RT-PCR primers are presented Table 3.

[2] = test system: RAS (RAS-GTP) in WRO cells; experiment: RAS pull-down (RAS activation) assay with ATP stimulation; format: cell-based, human; details: WRO cells stably transfected; ATP treatment
Protocol: (§1) FIG. 6. […] Scale bar=100 μm. […] Scale bar=100 μm.
The protocol for cell treatment was as described previously (Walker et al., 23(8) EMBO J. 1749-60 (2004)). Briefly, cells were serum starved for 2 h in serum-free medium at 24 h post-transfection of wild-type H-RAS. Cells were then treated with 50 μM ATP for 1 min. A RAS activation assay kit (Cell Biolabs, San Diego, Calif.) was used to assess RAS activity. After treatment, cells were washed twice with ice-cold PBS and then lysed in 1 mL of assay lysis buffer. After centrifugation at 14,000×g for 10 min at 4° C., cell lysates were incubated at 4° C. for 1 h with 40 μL of the RAF1 RAS-binding domain-agarose beads. The beads were pelleted and washed three times with assay lysis buffer, and then resuspended in 2× reducing SDS-PAGE sample buffer. The quantities of activated RAS (RAS-GTP) were analyzed by Western blotting using anti-RAS monoclonal antibody.

C643 cells = experiment: Anchorage independent colony formation, stable transfection; format: cell-based, human; details: C643, stably transfected; n=3; control vector 92.67±18.15; P=0.03
[3] = test system: thyroid cancer cell lines; experiment: Colony formation in monolayer culture after transient RASAL1 transfection; format: cell-based, human; details: transient reintroduction, compared with control vector; six of seven thyroid cancer cell lines tested
KAT18 cells = experiment: Anchorage independent colony formation, stable transfection; format: cell-based, human; details: KAT18, stably transfected; n=3; control vector 81.67±16.29; P=0.05
[4] = test system: MAPK and PI3K signaling pathways (pERK, pAkt) in thyroid cancer cell lines; experiment: Western blotting of ERK and Akt phosphorylation after RASAL1 expression; format: cell-based, human; details: for pERK and pAkt levels: acute expression; for pERK and pAKT: stable expression
[5] = test system: K1 cell-derived xenograft tumors; experiment: Xenograft tumor formation in nude mice
Text: The procedures for the construction of doxycycline (Dox)-inducible expression device for RASAL1 and transfection of K1 cells are as described in the Materials and Methods section below. […] Each time point represents the average±standard deviation of the values obtained from four mice in each group. Two-tailed paired Student t test was used to compare tumor sizes at week 5. H) Photographs of the tumors that were surgically removed from mice in each group after they were killed at the end of 5 weeks from the cell inoculation. I) Weight of individual tumors surgically removed from the animals in each group corresponding to (H). The average weight of the tumors from each group is indicated with a short horizontal bar.
The animals' care was in accord with the guidelines of Johns Hopkins Medical Institutions. K1 cells stably transfected with doxcycycline-inducible wild-type RASAL1 or RASAL1 mutants constructed as described above were injected (1×10^7 cells/mouse) subcutaneously into flanks of female nude mice at the age of 4 weeks (Harlan Sprague Dawley, Indianapolis, Ind.). Mice were fed vehicle or 0.2 mg/mL doxycycline, which was stored in a 0.5% sucrose solution in light-proof bottles, beginning when the tumor grew to a size of 2 mm at 1.5 weeks after the inoculation of cells. Tumor size was measured, and volume was calculated using the formula (length×width2)/2. After 5 weeks, mice were sacrificed, and tumors were surgically removed, photographed, and weighed.

K1 cells = experiment: Colony formation with doxycycline-inducible RASAL1 expression; format: cell-based, human; details: Dox-induced expression, control (no Dox) 86.00±8.54, P=0.006
Protocol: as §1
Colony formation assays were performed as described previously (Liu et al., 92(6) J. CLIN. ENDOCRINOL. METAB. 2264-71 (2007)). For colony formation in monolayer culture, transfected cells (1×10^5 cells/well) were inoculated into a […], and 24-h later cells were selected with blasticidin (2 μg/mL) for 2 weeks. Surviving colonies were counted after staining with crystal violet. For colony formation in soft agar, cells (5×10^3 cells/well) were plated in RPMI 1640 containing 10% FBS and 0.33% agar in 12-well plates. After 3-4 weeks of culture, colonies were photographed and colony number was counted under a microscope.
RASAL1 cDNA, which was amplified from normal thyroid (Stratagene, La Jolla, Calif.) and tagged with c-myc epitope, was inserted into a modified lenti-virus vector that was derived from plenti6/V5-DEST (Invitrogen, Grand Island, N.Y.). The virus packaging and cell infection were performed as described previously (Liu et al., 18 CANCER RES. 7311-19 (2009)). To construct the plasmid for doxycycline-inducible expression of RASAL1, the CMV promoter in the modified plenti6/V5-DEST plasmid was replaced with the Xho I-EcoR V fragment of plasmid pUHG10-3 (Gossen et al., 89(12) PROC. NATL. ACAD. SCI. USA 5547-51 (1992)), which contained hCMV minimal promoter with heptamerized upstream tet-operators. […]

WRO cells = experiment: Colony formation in soft agar, stable transfection; format: cell-based, human
Text: FIG. 5. Examination of the effects of reintroduction of RASAL1 on RAS signaling and growth of thyroid cancer cells. A) A representative result of Western blotting analysis of RASAL1 expression and phosphorylation of ERK and Akt as well as other related proteins as indicated in various thyroid cancer cell lines that harbor different genetic alterations. B) A representative result of colony formation of thyroid cancer cells in monolayer culture after transfection of plasmids with or without insertion of RASAL1 cDNA followed by drug selection for 2 weeks. Cell colonies were stained with crystal violet. Scale bar=1 cm. C) Western blotting analysis of RASAL1 expression and phosphorylation of ERK and Akt and related proteins as indicated in three selected thyroid cancer cell lines stably transfected with RASAL1. D) Bar graph presentation of the colony numbers (mean±standard deviation) from three experiments for cells stably transfected with empty vectors or RASAL1 as in (C). Only cell colonies containing more than 50 cells were included.
as §1
Colony formation assays were performed as described previously (Liu et al., 92(6) J. CLIN. ENDOCRINOL. METAB. 2264-71 (2007)). […] Surviving colonies were counted after staining with crystal violet. […] After 3-4 weeks of culture, colonies were photographed and colony number was counted under a microscope.

Question: With Nc1ncn([C@H]2C[C@H](O)[C@@H](CO)O2)c(=O)n1 [5-Aza, 5-aza-2-deoxycytidine] as the molecule, how does the “RASAL1 expression (RT-PCR)” value ([1]; in six of the eight thyroid cancer cell lines tested, 5 μM for 24 hours) read?
Answer: Its value is “restored its expression”.

Question: And the “demethylation of RASAL1 (MSP analysis)” value [1]?
Answer: The value was “induced demethylation of RASAL1”.

Question: And the “demethylation of RASAL1 (MSP analysis)” value ([1]; listed as 5-Aza-dC)?
Answer: Its value is “Partial demethylation”.

B1: RASAL1: RASAL1 cDNA from normal thyroid, c-myc tagged, in lenti-virus vector, expressed in thyroid cancer cells; RasGAP tumor suppressor protein (protein, UniProt O95294 1-804, looked up)
RasGAP-activating-like …: MAKSSSLNVRVVEGRALPAKDVSGSSDPYCLVKVDDEVVARTATVWRSLGPFWGEEYTVHLPLDFHQLAFYVLDEDTVGHDDIIGKISLSREAITADPRGIDSWINLSRVDPDAEVQGEICLSVQMLEDGQGRCLRCHVLQARDLAPRDISGTSDPFARVFWGSQSLETSTIKKTRFPHWDEVLELREMPGAPSPLRVELWDWDMVGKNDFLGMVEFSPKTLQQKPPKGWFRLLPFPRAEEDSGGNLGALRVKVRLIEDRVLPSQCYQPLMELLMESVQGPAEEDTASPLALLEELTLGDCRQDLATKLVKLFLGRGLAGRFLDYLTRREVARTMDPNTLFRSNSLASKSMEQFMKLVGMPYLHEVLKPVISRVFEEKKYMELDPCKMDLGRTRRISFKGALSEEQMRETSLGLLTGYLGPIVDAIVGSVGRCPPAMRLAFKQLHRRVEERFPQAEHQDVKYLAISGFLFLRFFAPAILTPKLFDLRDQHADPQTSRSLLLLAKAVQSIGNLGQQLGQGKELWMAPLHPFLLQCVSRVRDFLDRLVDVDGDEAGVPARALFPPSAIVREGYLLKRKEEPAGLATRFAFKKRYVWLSGETLSFSKSPEWQMCHSIPVSHIRAVERVDEGAFQLPHVMQVVTQDGTGALHTTYLQCKNVNELNQWLSALRKASAPNPNKLAACHPGAFRSARWTCCLQAERSAAGCSRTHSAVTLGDWSDPLDPDAEAQTVYRQLLLGRDQLRLKLLEDSNMDTTLEADTGACPEVLARQRAATARLLEVLADLDRAHEEFQQQERGKAALGPLGP
modifications: c-myc tag
notes: RASAL1 cDNA from normal thyroid, c-myc tagged, in lenti-virus vector, expressed in thyroid cancer cells; RasGAP tumor suppressor protein
Question: Which results are given for B1?
Answer: effect on activation of RAS and increase in pAKT and pERK stimulated by ATP [2]: suppressed the activation of RAS and the increase in pAKT and pERK; colony number (C643 cells): 55.33±9.71; cell colony growth in monolayer culture [3]: dramatically inhibited cell colony growth; colony number (KAT18 cells): 54.00±6.56; pERK and pAkt levels ([4]; BCPAP cells (BRAF mutation)): only reduced pAKT but not pERK; pERK and pAkt levels ([4]; C643 cells (RAS mutation)): No effect was observed; also recorded: no effect on pERK and pAKT; pERK and pAkt levels ([4]; FTC-133 cells (PTEN mutation)): reduced pERK but not pAKT; pERK and pAkt levels ([4]; Hth7 cells (RAS mutation)): No effect was observed; pERK and pAkt levels ([4]; KAT18 cells (wild-type RAS, BRAF, PIK3CA, PTEN)): decreased both pERK and pAkt levels; pERK and pAKT ([4]; KAT18 cells): inhibition of pERK and pAKT was observed; pERK and pAkt levels ([4]; SW1736 cells (BRAF mutation)): No effect was observed; pERK and pAkt levels ([4]; TPC1 cells (RET-PTC1 rearrangement)): no effect; pERK and pAkt levels ([4]; WRO cells (wild-type RAS, BRAF, PIK3CA, PTEN)): decreased both pERK and pAkt levels; pERK and pAKT ([4]; WRO cells): inhibition of pERK and pAKT was observed; effect on tumor growth ([5]; doxycycline-induced expression in K1 xenografts): statistically significant inhibitory effect; tumor weight ([5]; doxycycline-induced expression, after 5 weeks, without induction 1.01±0.54, P=0.047): 0.66 ± 0.53 g; tumor volume ([5]; doxycycline-induced expression, week 5, without induction 0.94±0.52, P=0.02): 0.49±0.4 cm3; colony number (K1 cells): 40.33±6.03; colony number (WRO cells; WRO cell pools, wild-type vs mutants experiment, vector 52.00±9.54, P=0.009): 24.00±7.81; colony number (WRO cells; WRO, stably transfected, n=3, control vector 48.00±13.45, P=0.03): 21.67±6.35
